Assay results published in patent US20080119640A1.
Several values for one entry are separate records, joined by “and”; a condition that tells them apart may be missing. Equal entries are not always repeated.

Target: T1, IFNα receptor 2 (IFNAR2) on THP-1 cells (human) (UniProt P48551)
T1 sequence (looked up): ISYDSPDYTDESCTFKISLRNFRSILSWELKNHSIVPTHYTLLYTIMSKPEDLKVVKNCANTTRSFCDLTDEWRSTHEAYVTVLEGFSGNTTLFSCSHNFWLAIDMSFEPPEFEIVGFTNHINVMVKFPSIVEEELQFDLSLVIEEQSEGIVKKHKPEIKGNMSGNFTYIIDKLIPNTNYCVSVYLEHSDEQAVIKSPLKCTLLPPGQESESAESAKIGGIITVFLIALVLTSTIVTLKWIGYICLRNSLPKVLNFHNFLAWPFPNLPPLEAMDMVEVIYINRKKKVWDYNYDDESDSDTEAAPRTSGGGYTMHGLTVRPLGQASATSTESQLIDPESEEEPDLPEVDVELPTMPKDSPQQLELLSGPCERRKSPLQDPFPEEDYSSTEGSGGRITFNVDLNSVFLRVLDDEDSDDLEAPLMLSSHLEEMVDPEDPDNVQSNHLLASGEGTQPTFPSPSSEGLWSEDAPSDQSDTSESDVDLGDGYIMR
Test: cell-based or functional assay

Substance | pSTAT1 % (PEGASYS fixed as 100%) | pSTAT1 EC50 (pM)
6His P39pAF-30K PEG (from UniProt P01563 24-188) (ligand) | 52.9% | 253 pM
6His E107pAF (from UniProt P01563 24-188) (ligand) | 6.43% | 30.8 pM
6His E113pAF-30K PEG (from UniProt P01563 24-188) (ligand) | 54.7% | 262 pM
6His N45pAF-30K PEG (from UniProt P01563 24-188) (ligand) | 18.2% | 
6HisC1G/C98 IFNα-2a + limitin loop (from UniProt P01563 25-188) (ligand) | 6.27% and 7.27% | 30 pM and 34.8 pM
6His E107pAF-30K PEG (from UniProt P01563 24-188) (ligand) | 22.3% and 7.27% | 
6His K31pAF-30K PEG (from UniProt P01563 24-188) (ligand) | 62.5% | 
6His R12pAF-30K PEG (from UniProt P01563 24-188) (ligand) | 138% | 660 pM
6His H34pAF (from UniProt P01563 24-188) (ligand) | 25% | 
6His L117pAF-30K PEG (from UniProt P01563 24-188) (ligand) | 50.6% | 242 pM
PEGASYS® (Peginterferon alfa-2a) (from UniProt P01563 24-188) (ligand) | 100% | 479 pM
6His G37pAF-30K PEG (from UniProt P01563 24-188) (ligand) | 40.3% | 193 pM
6His K134pAF-30K PEG (from UniProt P01563 24-188) (ligand) | 22.5% | 
6His H34pAF-30K PEG (from UniProt P01563 24-188) (ligand) | 33.6% | 161 pM
6His T106pAF-30K PEG (from UniProt P01563 24-188) (ligand) | 28.4% | 
6His N65pAF-30K PEG (from UniProt P01563 24-188) (ligand) | > 532% | > 2860 pM

Other lines, results leading:

pSTAT1 % (PEGASYS fixed as 100%) | pSTAT1 EC50 (pM) | Substance
4.55% | 21.8 pM | 6His G37pAF (from UniProt P01563 24-188) (ligand)
10.2% |  | 6His K31pAF (from UniProt P01563 24-188) (ligand)
27.8% | 133 pM | 6His L110pAF-30K PEG (from UniProt P01563 24-188) (ligand)
3.76% |  | 6His F38S (from UniProt P01563 24-188) (ligand)
2.72% | 13 pM | 6His F38L (from UniProt P01563 24-188) (ligand)
3.97% | 19 pM | 6His E41pAF (from UniProt P01563 24-188) (ligand)
25.2% | 120 pM | 6His E41pAF-30K PEG (from UniProt P01563 24-188) (ligand)
66% | 316 pM | 6His F27pAF-30K PEG (from UniProt P01563 24-188) (ligand)
47% | 225 pM | 6His R125pAF-30K PEG (from UniProt P01563 24-188) (ligand)
